Test results from patent publication US12202861B2, “Inducible, tunable, and multiplex human gene regulation using CRISPR-Cpf1” (The General Hospital Corporation, priority 2017, dated 2025).

How the values were obtained:
Assay type in all cases: cell-based, human
[1] = tested on: HBB; assay: RT-qPCR activation of endogenous HBB gene promoter in HEK293 cells; details: single crRNA
Description: (§1) FIGS. 1A-1E. Targeted human endogenous gene regulation using individual crRNAs with dLbCpf1-based activators • (A) Schematic showing direct dLbCpf1-VPR and dLbCpf-p65 activator fusion proteins. • (B) Activities of dLbCpf1-p65 or dLbCpf1-VPR using single crRNAs at three endogenous human genes (HBB, AR, and NPY1R) in human HEK293 cells. Relative activation of the indicated gene promoters was measured by RT-qPCR. Three separate individual crRNAs were targeted within promoter sequence 1 kb upstream of the transcription start site for each gene. Relative mRNA expression is calculated by comparison to the control sample in which no crRNA is expressed. (C) Analysis of various crRNAs targeted to the human CD5 and CD22 promoters. 32 crRNAs (16 for each gene) were designed to target sites located within promoter sequences 1 kb upstream or 500 bps downstream of the TSS of each gene. Repetitive sequences were not targeted. After 72 hours post-transfection, cells were stained with fluorescently labeled antibody for CD5 or CD22 protein and fluorescent-positive cells were quantified by flow cytometry. Error bars represent s.e.m. for three biological replicates. […] (D) Schematic illustrating drug-inducible bi-partite dLbCpf1-based activator fusion proteins. dLbCpf1 is fused to one to four DmrA domains and VPR or p65 is fused to a DmrC domain. Because DmrA and DmrC interact only in the presence of an A/C-heterodimerizer drug (red diamond), the bi-partite activator is only reconstituted in the presence of the drug. (E) Activities of drug-inducible bi-partite dLbCpf1-based activators using single crRNAs at three endogenous human genes (HBB, AR, and NPY1R) in human HEK293 cells. Relative activation of the indicated gene promoters was measured by RT-qPCR. […] Data shown in (B) and (E) represent three biological independent replicates and error bars indicate standard deviation (SD) of three technical replicates.
(§2) (A) Schematic of an expression cassette designed to express multiple gRNAs encoded on a single transcript. The arrows indicate cleavage sites being processed by the RNase activity of dLbCpf1. (B) Schematic illustrating multiplex expression of three crRNAs each targeted to a different endogenous gene promoter in a single cell. (C) Simultaneous activation of three endogenous human genes using crRNAs expressed from a multiplex transcript or from individual transcripts with dLbCpf1-VPR direct fusions (left panel), dLbCpf1-DmrA(×4) and DmrC-VPR fusions (middle panel), and dLbCpf1-DmrA(×4) and DmrC-p65 fusions (right panel). Transcripts were measured in HEK293 cells using RT-qPCR with relative mRNA expression calculated by comparison to the control sample in which no crRNA is expressed. (D) Activities of MST crRNA with different dLbCpf1-based activators in human U20S cells. Graphs showing activation of three endogenous human genes with dLbCpf1-VPR direct fusions, dLbCpf1-DmrA(×4) and DmrC-p65 fusions, and dLbCpf1-DmrA(×4) and DmrC-VPR fusions and crRNAs expressed from a multiplex single transcript (MST) or from transcripts encoding a single crRNA. RNA expression was measured by RT-qPCR and relative expression shown was calculated by comparison to a control sample in which no crRNA is expressed. (E) Schematic illustrating multiplex expression of three crRNAs each targeted to the same endogenous gene promoter in the same cell. (F) Activities of direct dLbCpf1-p65 or dLbCpf1-VPR fusions with sets of three crRNAs expressed from a multiplex transcript or from individual transcripts on the HBB, AR, or NPY1R endogenous gene promoters. Transcripts were measured in HEK293 cells using RT-qPCR with relative mRNA expression calculated by comparison to the control sample in which no crRNA is expressed. (G) Activities of dLbCpf1-DmrA(×4) and DmrC-VPR fusions or with dLbCpf1-DmrA(×4) and DmrC-p65 fusions with sets of three crRNAs expressed from a multiplex transcript or from individual transcripts on the HBB, AR, or NPY1R endogenous gene promoters. […]

[2] = tested on: AR; assay: RT-qPCR activation of endogenous AR gene promoter in HEK293 cells; details: single crRNA
Description: as §1
(A) Schematic of an expression cassette designed to express multiple gRNAs encoded on a single transcript. The arrows indicate cleavage sites being processed by the RNase activity of dLbCpf1. (B) Schematic illustrating multiplex expression of three crRNAs each targeted to a different endogenous gene promoter in a single cell. […] Transcripts were measured in HEK293 cells using RT-qPCR with relative mRNA expression calculated by comparison to the control sample in which no crRNA is expressed. […] RNA expression was measured by RT-qPCR and relative expression shown was calculated by comparison to a control sample in which no crRNA is expressed. […] Transcripts were measured in HEK293 cells using RT-qPCR with relative mRNA expression calculated by comparison to the control sample in which no crRNA is expressed. […]

[3] = tested on: NPY1R; assay: RT-qPCR activation of endogenous NPY1R gene promoter in HEK293 cells; details: single crRNA
Description: as §1, §2

[4] = tested on: HBB; assay: RT-qPCR activation of HBB in U2OS cells; details: MST crRNAs and single crRNAs
From the text: (A) Schematic of an expression cassette designed to express multiple gRNAs encoded on a single transcript. The arrows indicate cleavage sites being processed by the RNase activity of dLbCpf1. (B) Schematic illustrating multiplex expression of three crRNAs each targeted to a different endogenous gene promoter in a single cell. (C) Simultaneous activation of three endogenous human genes using crRNAs expressed from a multiplex transcript or from individual transcripts with dLbCpf1-VPR direct fusions (left panel), dLbCpf1-DmrA(×4) and DmrC-VPR fusions (middle panel), and dLbCpf1-DmrA(×4) and DmrC-p65 fusions (right panel). Transcripts were measured in HEK293 cells using RT-qPCR with relative mRNA expression calculated by comparison to the control sample in which no crRNA is expressed. […] RNA expression was measured by RT-qPCR and relative expression shown was calculated by comparison to a control sample in which no crRNA is expressed. […] Transcripts were measured in HEK293 cells using RT-qPCR with relative mRNA expression calculated by comparison to the control sample in which no crRNA is expressed. […] Transcripts were measured in HEK293 cells using RT-qPCR with relative mRNA expression calculated by comparison to the control sample in which no crRNA is expressed. […] Cells were collected at various time points and relative mRNA expression levels were measured by RT-qPCR compared to a negative control. […]

[5] = bi-partite with dLbCpf1-DmrA fusions
[6] = bi-partite with dLbCpf1-DmrA fusions, A/C heterodimerizer
[7] = bi-partite, with dLbCpf1 fusions harboring two, three or four DmrA domains

B1: DmrC-p65: CAG-DmrC-NLS-FLAG-P65; DmrC dimerization domain fused to p65 activation domain (SEQ ID NO: 50) (protein)
chain: MGSRILWHEMWHEGLEEASRLYFGERNVKGMFEVLEPLHAMMERGPQTLKETSFNQAYGRDLMEAQEWCRKYMKSGNVKDLLQAWDLYYHVFRRISKGGGSPKKKRKVSSDYKDHDGDYKDHDIDYKDDDDKAAGGGGSGSEASGSGRADALDDFDLDMLGSDALDDFDLDMLGSDALDDFDLDMLGSDALDDFDLDMLINSRSSGSPKKKRKVGSQYLPDTDDRHRIEEKRKRTYETFKSIMKKSPFSGPTDPRPPPRRIAVPSRSSASVPKPAPQPYPFTSSLSTINYDEFPTMVFPSGQISQASALAPAPPQVLPQAPAPAPAPAMVSALAQAPAPVPVLAPGPPQAVAPPAPKPTQAGEGTLSEALLQLQFDDEDLGALLGNSTDPAVFTDLASVDNSEFQQLLNQGIPVAPHTTEPMLMEYPEAITRLVTGAQRPPDPAPAPLGAPGLPNGLLSGDEDFSSIADMDFSALLGSGSGSRDSREGMFLPKPEAGSAISDVFEGREVCQPKRIRPFHPPGSPWANRPLPASLAPTPTGPVHEPVGSLTPAPVPQPLDPAPAVTPEASHLLEDPDEETSQAVKALREMADTVIPQKEEAAICGQMDLSHPPPRGHLDELTTTLESMTEDLNLDSPLTPELNEILDTFLNDECLLHAMHISTGLSIFDTSLF
modifications: misc_feature 1..2016 MMW948: CAG-DmrC-NLS-FLAG-VPR
dependence of maximal activation on A/C heterodimerizer drug [1, 5]: dependent on the presence of A/C heterodimerizer drug | level of activation somewhat less than that obtained with DmrC-VPR [1, 5]: ~50% | fold activation of transcription [1, 6]: ~20 fold | activation of transcription [1, 7]: could robustly activate transcription | dependence of maximal activation on A/C heterodimerizer drug [2, 5]: dependent on the presence of A/C heterodimerizer drug | fold activation of transcription [2, 6]: ~25 fold | activation of transcription [2, 7]: could robustly activate transcription | dependence of maximal activation on A/C heterodimerizer drug [3, 5]: dependent on the presence of A/C heterodimerizer drug | level of activation somewhat less than that obtained with DmrC-VPR [3, 5]: ~30% | fold activation of transcription [3, 6]: ~10 fold | activation of transcription [3, 7]: could robustly activate transcription | gene activation (relative RNA expression) [4]: even greater than in HEK293s
